Results: PMC9006937, “Structure-Based Design and Antigenic Validation of Respiratory Syncytial Virus G Immunogens” (Journal of Virology, 2022)
Values joined by “and” are separate entries in the source; they are usually repeats but may differ in a detail not shown here. Equal entries are not always repeated.

Columns and labels:
Assay in all cases: BLI; Octet RED384; MAb (1 µg/mL) captured on anti-human IgG Fc (AHC) biosensors; RSV G^ecto proteins in solution, 40 nM 2-fold serially diluted to 0.63 nM (higher starting concentrations for CX4C); PBS pH 7.4, 0.05% Tween 20, 1% BSA; association 300 s, dissociation 600 s; global 1:1 fit; in duplicate
[1] = target: human anti-RSV G monoclonal antibody 2D10 (human)
[2] = target: human anti-RSV G monoclonal antibody 3D3 (human)
[3] = target: human anti-RSV G monoclonal antibody 3G12 (human)
[4] = target: T1, RSV G ectodomain wild-type protein (RSV strain A2, residues 64 to 298) (Human respiratory syncytial virus A, …, UniProt P03423); conditions: both partners purified
T1 construct: glycosylated, runs at about 90 kDa on SDS-PAGE; also called RSV G^ecto WT; wild-type RSV G

Molecule	Kd [1]	koff [1]	kon [1]	Kd [2]	koff [2]	kon [2]	Kd [3]	koff [3]	kon [3]	Kd [4]	koff [4]	kon [4]
RSV G ectodomain S177R mutant protein (residues 64 to 298) (from UniProt P03423 64-298) (domain or fragment)	< 0.001 nM	< 1e-07 s⁻¹	318000 M⁻¹ s⁻¹ and 253000 M⁻¹ s⁻¹	0.422 nM and 0.57 nM	0.000104 s⁻¹ and 0.000151 s⁻¹	247000 M⁻¹ s⁻¹ and 265000 M⁻¹ s⁻¹	4.34 nM and 4.6 nM	0.000581 s⁻¹ and 0.000672 s⁻¹	134000 M⁻¹ s⁻¹ and 146000 M⁻¹ s⁻¹	–	–	–
RSV G ectodomain S177Q mutant protein (residues 64 to 298) (from UniProt P03423 64-298) (domain or fragment)	0.605 nM and 0.485 nM	0.000225 s⁻¹ and 0.00015 s⁻¹	371000 M⁻¹ s⁻¹ and 310000 M⁻¹ s⁻¹	0.538 nM and 0.264 nM	0.000199 s⁻¹ and 0.000109 s⁻¹	369000 M⁻¹ s⁻¹ and 414000 M⁻¹ s⁻¹	1.88 nM and 2.28 nM	0.000447 s⁻¹ and 0.000528 s⁻¹	238000 M⁻¹ s⁻¹ and 232000 M⁻¹ s⁻¹	–	–	–
human anti-RSV G monoclonal antibody 3D3 (antibody, V domains shown, heavy chain of human MAb 3D3; light chain of human MAb 3D3; Whole IgG, captured by anti-human IgG Fc biosensors; also called MAb 3D3) VH: EEQLVESGGGLVQPGRSLRLSCVGSGLRFEEHAMHWVRQAPGRGLEWVSGISWNSGSVGYADSVKGRFTTSRDNAKDILFLEMNTLRSEDTALYFCAIMVATTKNDFHYYKDVWGKGTTVTVSS VL: QIVLTQSPATLSLSPGERATLSCRASQSVSNHLAWYQQKPGQAPRLLIYETSNRATGIPPRFSGSGSGTDFTLTISSLEPEDFAVYYCQQRNNWYTFGQGTKLEIK	–	–	–	–	–	–	–	–	–	< 0.001 nM	< 1e-07 s⁻¹	426000 M⁻¹ s⁻¹ and 431000 M⁻¹ s⁻¹
human anti-RSV G monoclonal antibody 3G12 (antibody, V domains shown, heavy chain of human MAb 3G12; light chain of human MAb 3G12; Whole IgG, captured by anti-human IgG Fc biosensors; also called MAb 3G12) VH: QLQLQESGPGLVKPSETLSLTCTVSGGSISSSNYYWGWIRQPPGKGLEWIASIHDSGSIYYNPSLRSRVTISVDTSKNQFSLKLSSVTAADTAVYYCARHLVWFGELRNNWFDPWGQGTLVTVAS VL: EIVMTQSPATLSVSPGERATLSCRASQSVNSNLAWYQHKPGQAPRLLIYGASTRATGIPARFSGSGSGTDFTLTISSLQSEDFAVYYCQQYNNWPLFGPGTKVDLK	–	–	–	–	–	–	–	–	–	0.26 nM and 0.262 nM	6.55e-05 s⁻¹ and 5.19e-05 s⁻¹	252000 M⁻¹ s⁻¹ and 198000 M⁻¹ s⁻¹
human anti-RSV G monoclonal antibody 2D10 (antibody, V domains shown, heavy-chain variable region of human MAb 2D10; human IgG1 heavy-chain constant region as in the pCMVR VRC01 heavy-chain vector (AIDS Reagent Program); light-chain variable region of human MAb 2D10; light-chain constant region of the pCMVR VRC01 light-chain vector; IgG1; variable regions of 2D10 put in place of those of antibody VRC01 in the pCMVR VRC01 vectors; also called MAb 2D10) VH: QVQLVQSGPEVKKPGASVRLSCKASGYVFTNYGVSWVRQAPGQGLEWMGWSSPYNGNTYYAQKLKARVTMTTDTSTNTAYMELRSLRSDDTAVYYCGRDMLGVVQAVAGPFDSWGQGTLVTVSS VL: DTPMTQSPSSVSASVGDRVTISCRASQGISNSLAWYQQKLGKAPQLLIYAASSLQSGVPSRFSGSGSGTDFTLTISSLQPEDFATYYCQQTNTFPFTFGPGTKVEVR	–	–	–	–	–	–	–	–	–	< 0.001 nM	< 1e-07 s⁻¹	370000 M⁻¹ s⁻¹ and 383000 M⁻¹ s⁻¹
